Assay results reported in article PMC5779698, “Identification and analysis of OsttaDSP, a phosphoglucan phosphatase from Ostreococcus tauri” (PLoS ONE, 2018).

Tests used:
[1] = biological target: OsttaDSP, dual specific phosphatase from Ostreococcus tauri, mature protein lacking the chloroplast transit peptide (Ostreococcus tauri); assay: SEC; HiPrep Sephacryl S-300 High-Resolution column, calibrated with a molecular weight kit; affinity-purified mature OsttaDSP, single peak of an estimated 54.4 kDa
purified protein = substrate: O=[N+]([O-])c1ccc(OP(=O)(O)O)cc1; assay: purified protein; type: biochemical, Ostreococcus tauri; settings: pH 7, 37 °C, 2 mM DTT, hyperbolic saturation

| Molecule | stoichiometry N [1] | K0.5 (purified protein) |
| --- | --- | --- |
| OsttaDSP, dual specific phosphatase from Ostreococcus tauri, mature protein lacking the chloroplast transit peptide (enzyme) | 2 |  |
| OsttaDSP (Ostreococcus tauri) (protein, mature protein lacking the first 26 residues (predicted chloroplast transit peptide), 245 residues, N-terminal His6 tag kept, synthetic gene, pRSFDuet-1, E. coli BL21(DE3) pLys; homodimer) ATTTTRRGLADDDAYNAAMRAYSASPYEYKHDIGLYYHRIKPFLIVGTQPQTPADVDRLRETEGVTCVFNTQQEKDWKYWNVDYDSVRARAIETGMRHVRYPFEDFSADSLREGLPSAAAMLDAEIERGETVYLHCTAGMGRSPGLAIAYMYWFLDAYNTLDGAYEGLTSIRPCGPKKESIRGATCDLLAAIESDGKVEPLKRELEENEGVVLSIVSKERIQRAVRAMLLSTSDETVAKPWWKVW |  | 22.7 ± 3.4 mM |
